Laboratory results reported in patent publication EP1452542A2 (Novartis AG, dated 2004).

Columns and labels:
[1] = biological target: T1, human IgE; monoclonal antibody SE44 (human, UniProt P01854-1 1-428); assay: BIAcore SPR, Kaff from kass and kdiss
T1 construct: domain: human e constant region; also called IgE (SE44); human monoclonal IgE (SE44)

[2] = biological target: T1, human IgE; monoclonal antibody SE44; assay: BIAcore SPR, antibody captured via anti-human IgG, IgE SE44 3.125-25 nM in flow, 25°C
[3] = biological target: T1, human IgE; monoclonal antibody SE44; assay: BIAcore SPR, antibody captured via anti-human IgG, IgE SE44 25 nM, dissociation in HBS, 25°C

B1: reshaped human C21 antibody C21-H3/L1 (antibody, V domains shown)
VH: QVQLVQSGAEVKKPGASVKVSCKASGYTFSMYWLEWVRQAPGHGLEWVGEISPGTFTTNYNEKFKARATFTADTSTNTAYMELSSLRSEDTAVYYCARFSHFSGSNYDYFDYWGQGTLVTVSS
VL: DILLTQSPGTLSLSPGERATLSCRASQSIGTNIHWYQQKPGQAPRLLIKYASESISGIPSRFSGSGSGTDFTLTISRLEPEDFAMYYCQQSDSWPTTFGQGTKVEIK
- Ka [1]: 1.32e+10 M⁻¹
- kon [2]: 250000 M⁻¹ s⁻¹
- koff [3]: 1.9e-05 s⁻¹

B2: reshaped human C21 antibody C21-Hay3/L1 (antibody, V domains shown)
VH: QVQLVQSGAEVKKPGASVKVSCKASGYTFSMYWLEWVRQAPGQRLEWMGEISPGTFTTNYNEKFKARATFTADTSASTAYMELSSLRSEDTAVYYCARFSHFSGSNYDYFDYWGQGTLVTVSS
VL: DILLTQSPGTLSLSPGERATLSCRASQSIGTNIHWYQQKPGQAPRLLIKYASESISGIPSRFSGSGSGTDFTLTISRLEPEDFAMYYCQQSDSWPTTFGQGTKVEIK
- Ka [1]: 6.1e+09 M⁻¹
- kon [2]: 250000 M⁻¹ s⁻¹
- koff [3]: 4.1e-05 s⁻¹

B3: reshaped human C21 antibody C21-H1/L1 (antibody, V domains shown)
VH: QVQLVQSGAEVKKPGASVKVSCKASGYTFSMYWLEWVKQRPGHGLEWVGEISPGTFTTNYNEKFKAKATFTADTSTNTAYMELSSLTSEDTAVYYCARFSHFSGSNYDYFDYWGQGTLVTVSS
VL: DILLTQSPGTLSLSPGERATLSCRASQSIGTNIHWYQQKPGQAPRLLIKYASESISGIPSRFSGSGSGTDFTLTISRLEPEDFAMYYCQQSDSWPTTFGQGTKVEIK
- Ka [1]: 8.7e+09 M⁻¹
- kon [2]: 260000 M⁻¹ s⁻¹
- koff [3]: 3e-05 s⁻¹

B4: reshaped human C21 antibody C21-Hay3/L2 (antibody, V domains shown)
VH: QVQLVQSGAEVKKPGASVKVSCKASGYTFSMYWLEWVRQAPGQRLEWMGEISPGTFTTNYNEKFKARATFTADTSASTAYMELSSLRSEDTAVYYCARFSHFSGSNYDYFDYWGQGTLVTVSS
VL: DILLTQSPGTLSLSPGERATLSCRASQSIGTNIHWYQQKPGQAPRLLIKYASESISGIPDRFSGSGSGTDFTLTISRLEPEDFAMYYCQQSDSWPTTFGQGTKVEIK
- Ka [1]: 8.1e+09 M⁻¹
- kon [2]: 250000 M⁻¹ s⁻¹
- koff [3]: 3.1e-05 s⁻¹

B5: reshaped human C21 antibody C21-H3/L2 (antibody, V domains shown)
VH: QVQLVQSGAEVKKPGASVKVSCKASGYTFSMYWLEWVRQAPGHGLEWVGEISPGTFTTNYNEKFKARATFTADTSTNTAYMELSSLRSEDTAVYYCARFSHFSGSNYDYFDYWGQGTLVTVSS
VL: DILLTQSPGTLSLSPGERATLSCRASQSIGTNIHWYQQKPGQAPRLLIKYASESISGIPDRFSGSGSGTDFTLTISRLEPEDFAMYYCQQSDSWPTTFGQGTKVEIK
- Ka [1]: 5.7e+09 M⁻¹
- kon [2]: 250000 M⁻¹ s⁻¹
- koff [3]: 4.4e-05 s⁻¹

B6: reshaped human C21 antibody C21-Hay3/L3 (antibody, V domains shown)
VH: QVQLVQSGAEVKKPGASVKVSCKASGYTFSMYWLEWVRQAPGQRLEWMGEISPGTFTTNYNEKFKARATFTADTSASTAYMELSSLRSEDTAVYYCARFSHFSGSNYDYFDYWGQGTLVTVSS
VL: EIVLTQSPGTLSLSPGERATLSCRASQSIGTNIHWYQQKPGQAPRLLIKYASESISGIPSRFSGSGSGTDFTLTISRLEPEDFAMYYCQQSDSWPTTFGQGTKVEIK
- Ka [1]: 1.6e+09 M⁻¹
- kon [2]: 260000 M⁻¹ s⁻¹
- koff [3]: 0.000159 s⁻¹

B7: reshaped human C21 antibody C21-H1/L3 (antibody, V domains shown)
VH: QVQLVQSGAEVKKPGASVKVSCKASGYTFSMYWLEWVKQRPGHGLEWVGEISPGTFTTNYNEKFKAKATFTADTSTNTAYMELSSLTSEDTAVYYCARFSHFSGSNYDYFDYWGQGTLVTVSS
VL: EIVLTQSPGTLSLSPGERATLSCRASQSIGTNIHWYQQKPGQAPRLLIKYASESISGIPSRFSGSGSGTDFTLTISRLEPEDFAMYYCQQSDSWPTTFGQGTKVEIK
notes: C21-L3 is C21-L1 with Glu instead of Asp at position 1 and Val instead of Leu at position 3
- Ka [1]: 4.7e+09 M⁻¹
- kon [2]: 290000 M⁻¹ s⁻¹
- koff [3]: 6.2e-05 s⁻¹

B8: reshaped human C21 antibody C21-H3/L3 (antibody, V domains shown)
VH: QVQLVQSGAEVKKPGASVKVSCKASGYTFSMYWLEWVRQAPGHGLEWVGEISPGTFTTNYNEKFKARATFTADTSTNTAYMELSSLRSEDTAVYYCARFSHFSGSNYDYFDYWGQGTLVTVSS
VL: EIVLTQSPGTLSLSPGERATLSCRASQSIGTNIHWYQQKPGQAPRLLIKYASESISGIPSRFSGSGSGTDFTLTISRLEPEDFAMYYCQQSDSWPTTFGQGTKVEIK
- Ka [1]: 7.4e+09 M⁻¹
- kon [2]: 260000 M⁻¹ s⁻¹
- koff [3]: 3.5e-05 s⁻¹

B9: reshaped human C21 antibody C21-H1/L2 (antibody, V domains shown)
VH: QVQLVQSGAEVKKPGASVKVSCKASGYTFSMYWLEWVKQRPGHGLEWVGEISPGTFTTNYNEKFKAKATFTADTSTNTAYMELSSLTSEDTAVYYCARFSHFSGSNYDYFDYWGQGTLVTVSS
VL: DILLTQSPGTLSLSPGERATLSCRASQSIGTNIHWYQQKPGQAPRLLIKYASESISGIPDRFSGSGSGTDFTLTISRLEPEDFAMYYCQQSDSWPTTFGQGTKVEIK
notes: C21-L2 is C21-L1 with aspartic acid instead of serine at position 60
- Ka [1]: 4.9e+09 M⁻¹
- kon [2]: 280000 M⁻¹ s⁻¹
- koff [3]: 5.7e-05 s⁻¹
